In patent US20240199755A1, “ANTAGONISTS AND AGONISTS OF THE TRANSFERRIN RECEPTOR-2 FOR USE IN THE TREATMENT OF DISEASES OF THE BONE” (Kymab Limited, priority 2018, published 2024):
Entries after “also recorded” stand apart in the source; their conditions may differ.

Assays:
[1] = test system: trauma-induced heterotopic ossification; assay: Trauma-potentiated (drop-weight) heterotopic ossification model; type: in vivo; conditions: WT mice; after three weeks; Tfr2-ECD single dose, palovarotene or ibuprofen daily
Method: For systemic Tfr2-ECD treatment, WT mice were treated every other day with Tfr2-ECD intraperitoneally for two weeks. Mice received 250 μg Tfr2-ECD (10 mg/kg BW) per injection for the first 10 days after BMP-2/matrigel injection into the muscle and 125 μg per injection (5 mg/kg BW) for the remaining time. This experiment was performed once with 8-10 mice per group. Drop-weight HO: This experiment was performed according to Liu et al. with minor modifications^65. Female 10-12-week-old WT mice were anesthetized and placed on a ridge of a plastic container over which the right leg was bent so the femur was lying horizontally. Mice received an injection of 1 μg BMP-2 mixed in 50 μl matrigel. Afterwards, a stainless-steel ball of 16 g (16 mm diameter) was dropped from a distance of 80 cm height onto the quadriceps muscle. Mice either received a single dose of 1 μg Tfr2-ECD, which was co-injected with the BMP-2/matrigel mixture, or palovarotene (Hycultec), which was administered daily by oral gavage. Palovarotene was dissolved in DMSO and diluted 1:4 with corn oil. Mice received palovarotene at a dose of 100 μg/mouse for the first five days and 50 μg/mouse for the remainder of the experiment (days 621). One group of mice received ibuprofen via the drinking water at a dose of […] which was changed every other day^66. […]

[2] = Iron, blood and bone parameters of wild type mice treated systemically with Tfr2-ECD; type: in vivo
Method: For systemic Tfr2-ECD treatment, WT mice were treated every other day with Tfr2-ECD intraperitoneally for two weeks. Mice received 250 μg Tfr2-ECD (10 mg/kg BW) per injection for the first 10 days after BMP-2/matrigel injection into the muscle and 125 μg per injection (5 mg/kg BW) for the remaining time. This experiment was performed once with 8-10 mice per group. Drop-weight HO: This experiment was performed according to Liu et al. with minor modifications^65. Female 10-12-week-old WT mice were anesthetized and placed on a ridge of a plastic container over which the right leg was bent so the femur was lying horizontally. Mice received an injection of 1 μg BMP-2 mixed in 50 μl matrigel. Afterwards, a stainless-steel ball of 16 g (16 mm diameter) was dropped from a distance of 80 cm height onto the quadriceps muscle. Mice either received a single dose of 1 μg Tfr2-ECD, which was co-injected with the BMP-2/matrigel mixture, or palovarotene (Hycultec), which was administered daily by oral gavage. Palovarotene was dissolved in DMSO and diluted 1:4 with corn oil. Mice received palovarotene at a dose of 100 μg/mouse for the first five days and 50 μg/mouse for the remainder of the experiment (days 621). One group of mice received ibuprofen via the drinking water at a dose of […] which was changed every other day^66. Mice received methamizole (200 mg/kg) to reduce pain for the entire duration of the experiment. This experiment was performed twice with 6 mice per group.
Bone microarchitecture was analyzed using the vivaCT40 (Scanco Medical, Switzerland). The femur and the fourth lumbar vertebra were imaged at a resolution of 10.5 μm with X-ray energy of 70 kVp, […], and an integration time of 200 ms. The trabecular bone in the femur was assessed in the metaphysis 20 slices below the growth plate using 150 slices. In the vertebral bone, 150 slices were measured between both growth plates. The cortical bone was determined in the femoral midshaft (150 slices). Pre-defined scripts from Scanco were used for the evaluation.
The iron concentration in the liver was determined using 20 mg of dried liver tissue as previously published^8. The iron concentration in the bone was determined using atomic absorption spectroscopy (PerkinElmer Analyst 800) of dried bone tissue (bone marrow-flushed femur and tibia) as previously published^69.
The bone turnover markers C-terminal telopeptide (CTX) and pro-collagen type I N-terminal peptide (P1NP) were measured in the serum using ELISAs (IDS, Germany). Serum dickkopf-1 and BMP-2 were measured using ELISAs from R&D Systems (Germany). Mouse sclerostin was measured with an ELISA from Alpco (USA). Serum ferritin and iron were measured using routine methods for clinical analyses on a Roche Modular PPE analyzer. The transferrin saturation was determined using a total iron binding capacity kit from Randox.

[3] = wild type mice, systemic Tfr2-ECD, n = 8, means ± SD

B1: Tfr2-ECD: Recombinant full-length extracellular domain (aa 103-798) of murine Tfr2, His-tagged, expressed in Sf9 insect cells (protein, listed as Mus musculus)
chain: RGSCQACGDSVLVVDEDVNPEDSGRTTLYWSDLQAMFLRFLGEGRMEDTIRLTSLRERVAGSARMATLVQDILDKLSRQKLDHVWTDTHYVGLQFPDPAHANTLHWVDADGSVQEQLPLEDPEVYCPYSATGNATGKLVYAHYGRSEDLQDLKAKGVELAGSLLLVRVGITSFAQKVAVAQDFGAQGVLIYPDPSDFSQDPHKPGLSSHQAVYGHVHLGTGDPYTPGFPSFNQTQFPPVESSGLPSIPAQPISADIADQLLRKLTGPVAPQEWKGHLSGSPYRLGPGPDLRLVVNNHRVSTPISNIFACIEGFAEPDHYVVIGAQRDAWGPGAAKSAVGTAILLELVRTFSSMVSNGFRPRRSLLFISWDGGDFGSVGATEWLEGYLSVLHLKAVVYVSLDNSVLGDGKFHAKTSPLLVSLIENILKQVDSPNHSGQTLYEQVALTHPSWDAEVIQPLPMDSSAYSFTAFAGVPAVEFSFMEDDRVYPFLHTKEDTYENLHKMLRGRLPAVVQAVAQLAGQLLIRLSHDHLLPLDFGRYGDVVLRHIGNLNEFSGDLKERGLTLQWVYSARGDYIRAAEKLRKEIYSSERNDERLMRMYNVRIMRVEFYFLSQYVSPADSPFRHIFLGQGDHTLGALVDHLRMLRADGSGAASSRLTAGLGFQESRFRRQLALLTWTLQGAANALSGDVWNIDNNF
modifications: His tag
notes: Recombinant full-length extracellular domain (aa 103-798) of murine Tfr2, His-tagged, expressed in Sf9 insect cells
Which “New bone formation in the muscle (trauma-induced HO, μCT)” value [1] does the source give for B1 here?
The value was “inhibited new bone formation in the muscle comparable to palovarotene”.

What about the “Adverse effects on blood counts, iron parameters, bone homeostasis or gross morphology of internal organs” value ([2]; systemic Tfr2-ECD treatment, 2 week treatment period) of the same molecule?
Its value is “No adverse effects; also recorded: did not show adverse effects”.

What about the “Differential counts, Lymphocytes” value [2, 3] of the same molecule?
Its value is 90.1 ± 4.35%.

What about the “Differential counts, Monocytes” value [2, 3] of the same molecule?
Its value is 2.17 ± 2.55%.

And the “Differential counts, Neutrophils” value [2, 3]?
Its value is 7.33 ± 2.82%.

And the HCT [2, 3]?
Its HCT is 0.51 ± 0.02.

What about the Heart iron [2, 3] of the same molecule?
The Heart iron was 207.8 ± 54.1 μg/g dry tissue.

And the Hemoglobin [2, 3]?
The Hemoglobin was 9.77 ± 0.41 mmol/L.

And the Kidney iron [2, 3]?
Its Kidney iron is 112.6 ± 15.0 μg/g dry tissue.

What about the Liver iron [2, 3] of the same molecule?
The Liver iron was 578.3 ± 273^ μg/g dry tissue.

What about the Plasma iron [2, 3] of the same molecule?
Its Plasma iron is 30.1 ± 3.3 µmol/L.

What about the Platelets [2, 3] of the same molecule?
Its Platelets is 385 ± 69.5 10^9/L.

What about the RBC [2, 3] of the same molecule?
The RBC was 10.1 ± 0.40 10^12/L.

And the Reticulocytes [2, 3]?
Its Reticulocytes is 197 ± 24.2 10^9/L.

What about the Spleen iron [2, 3] of the same molecule?
The Spleen iron was 620.2 ± 113^ μg/g dry tissue.

And the WBC [2, 3]?
The WBC was 11.0 ± 3.09 10^9/L.

What about the “μCT BV/TV Femur” value [2, 3] of the same molecule?
The value was 10.7 ± 3.09%.

And the “μCT BV/TV Vertebrae” value [2, 3]?
Its value is 24.1 ± 3.36%.
